The results in this text go back to patent US20200179533A1.

One assay deals with PiT-2-HA (human) (UniProt Q08357). Kind of assay: cell-based or functional assay.
Assay [1] concerns the target PiT-2 receptor (human receptor gene PiT-2, SLC20A2) (human) (UniProt Q08357). Description: cell-based or functional assay.

In the assay with PiT-2-HA (human), “Amphotropic Envelope gene product included in the Reximmune-C1 and 2 retroviral vector” yielded an EGFP+ cells (%) (transduction efficiency, PiT-2-HA-HCT-15) of 14.9%. Besides, in assay [1], the EGFP+ cells (%) (transduction efficiency, PiT-2-CHO-K1) is 34%; the EGFP+ cells (%) (transduction efficiency, PiT-2-MIA-PaCa-2) is 78.6%; the EGFP+ cells (%) (transduction efficiency, PiT-2-RKO) was found to be 43.1%.
